The target of assay [1] is Bovine serum albumin (Bos taurus, UniProt P02769). The assay can be described thus: Binding of FAM-peptide to control protein immobilized on a plate. The following applies: 1 μM, room temperature, 1 h, fluorescence. How it is done: (§1) To confirm RXRB binds CRV, the binding of FAM-CRV to human recombinant RXRB protein immobilized on a plate was tested. Human RXRB recombinant protein (50 μL, 5 μg/mL) was immobilized in high binding 96-well plate at 4° C. overnight. Bovine serum albumin was used as the control protein. The protein solution was removed and washed one time with PBS. 1% BSA in PBS solution was then added to the wells and incubated at room temperature for 1 h to block the rest available binding sites. After one wash with PBS, RXRB and BSA were incubated with FAM-CRV (100 μL, 1 μM) at room temperature for 1 h. The wells were washed three times with PBS and the fluorescence was measured using a multiplate reader.
Chain of Bovine serum albumin (P02769 25-607): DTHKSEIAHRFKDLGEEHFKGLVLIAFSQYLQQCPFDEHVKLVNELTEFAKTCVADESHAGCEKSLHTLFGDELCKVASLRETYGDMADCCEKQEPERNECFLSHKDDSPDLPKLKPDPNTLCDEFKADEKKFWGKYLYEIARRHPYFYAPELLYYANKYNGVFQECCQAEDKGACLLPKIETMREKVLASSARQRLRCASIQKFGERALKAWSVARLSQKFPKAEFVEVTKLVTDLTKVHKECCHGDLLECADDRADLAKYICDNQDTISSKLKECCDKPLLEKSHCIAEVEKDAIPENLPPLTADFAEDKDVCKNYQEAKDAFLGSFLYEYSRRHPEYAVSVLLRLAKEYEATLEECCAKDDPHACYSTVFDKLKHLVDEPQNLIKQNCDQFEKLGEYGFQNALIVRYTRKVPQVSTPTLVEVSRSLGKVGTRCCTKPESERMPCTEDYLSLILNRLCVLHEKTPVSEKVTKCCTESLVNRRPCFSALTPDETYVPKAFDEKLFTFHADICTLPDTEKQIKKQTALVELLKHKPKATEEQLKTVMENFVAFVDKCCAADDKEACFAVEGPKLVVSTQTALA

For assay [2], the system named is cells isolated from tumors, spleen, liver, and blood from the 4T1 tumor mice. As to the kind of experiment: Ex vivo binding to cells isolated from organs of 4T1 mice, flow cytometry. Type of assay: cell-based, mouse. Particulars: 4T1 model, 4° C., 1 h. How it is done: Mice with tumor size about 8 mm were euthanized under deep anesthesia (Avertin, lack of response to a toe pinch) by cervical dislocation. Target (tumor) and control (e.g., liver, spleen) tissues were collected and further dissociated to single cells. Tumor cells were dissociated using MACS tumor dissociation kit. Cells were then incubated with fluorescent-labeled CRV or other cell markers (CD11b, CD68, F4/80, FAB, EpCAM, CD31) at 4° C. for 1 h. Positive cells were quantified on BD LSRFORTESSA and data were analyzed using FCS Express Version 3 (De Novo Software).

The test system of assay [3] is 4T1 tumors. The assay can be described thus: Immunofluorescence staining of tissues for FAM-peptide and CD31 at different homing time points. Type of assay: in vivo, mouse. The following applies: 4T1 orthotopic tumor-bearing mice, i.v. The protocol: FAM-CRV was intravenously injected into tumor bearing mice. To this end, 4T1 […] breast cancer cells were cultured in Dulbecco's modified Eagle's medium supplemented with 10% fetal bovine serum, 100 U/mL penicillin and 100 μg/mL streptomycin. The […] cell line was authenticated by the DNA Analysis Core Facility at the Sanford Burnham Prebys Medical Discovery Institute (La Jolla, Calif.) and tested negative for mycoplasma contamination. To produce 4T1 tumors, 1×10^6 tumor cells (suspended in 100 μL of PBS) were orthotopically injected into the mammary fat pad of normal BALB/c mice. All animal experimentation received approval from the Animal Research Committee of Sanford Burnham Prebys Medical Discovery Institute. Biodistribution of fluorescein-conjugated peptides (FAM-CRV, FAM-GGS, or FAM-ARA) was examined after intravenous injection of 100 μL peptide solution (1 mg/mL PBS) into the tail vein of a mouse. […] Tissues were collected, fixed with 4% formaldehyde buffer solution and then soaked in 30% sucrose in PBS overnight. Tissues were finally frozen in OCT embedding medium (Tissue-Tek), and sliced for immunofluorescence staining. Tissue sections were blocked in 1% bovine serum albumin with 0.1% Triton X-100 for 1 h, and incubated with appropriate primary antibodies and second antibodies. […]

Assay [4] has as its target T1, human recombinant RXRB protein (Homo sapiens, UniProt P28702).
T1 sequence (P28702 1-533): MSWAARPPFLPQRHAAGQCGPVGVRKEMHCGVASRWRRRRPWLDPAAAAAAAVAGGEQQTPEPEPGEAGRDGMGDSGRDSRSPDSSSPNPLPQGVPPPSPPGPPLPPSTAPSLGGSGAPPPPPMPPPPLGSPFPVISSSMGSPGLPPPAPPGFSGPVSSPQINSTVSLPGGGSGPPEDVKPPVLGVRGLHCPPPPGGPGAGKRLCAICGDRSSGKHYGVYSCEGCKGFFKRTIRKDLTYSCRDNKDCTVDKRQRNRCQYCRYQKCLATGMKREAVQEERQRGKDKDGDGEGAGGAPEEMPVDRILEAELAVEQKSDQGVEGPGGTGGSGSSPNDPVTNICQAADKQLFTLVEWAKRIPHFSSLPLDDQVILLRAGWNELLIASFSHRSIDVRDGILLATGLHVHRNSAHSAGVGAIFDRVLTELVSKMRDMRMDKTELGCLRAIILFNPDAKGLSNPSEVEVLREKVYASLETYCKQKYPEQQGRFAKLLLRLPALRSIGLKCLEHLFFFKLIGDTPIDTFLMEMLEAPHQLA
The assay can be described thus: Binding of FAM-peptide to protein immobilized on a plate. Particulars: 1 μM, room temperature, 1 h, fluorescence. The protocol: as §1

Regarding “GGSGGSKG [FAM-GGS, FAM-labeled control peptide]”, the “binding to control protein BSA” value in assay [1] was “neither peptide bound”. In addition, the “specific labelling of macrophages in the tumor (ex vivo)” value in assay [2] is “could not specifically label macrophages”. Moreover, the “fluorescence signal in the tumors at homing time points 5, 15, and 60 min” value in assay [3] is reported as “no fluorescence signals”.
“CRVLRSGSC [cyclic macrophage-targeting peptide]”: the “binding to control protein BSA” value in assay [1] is on record as “neither peptide bound”. In assay [4], the “binding to immobilized RXRB compared to control peptide FAM-GGS” value is “significantly higher binding”.

Values taken from US20210299212A1, “BINDNG MOLECULES TO TUMOR ASSOCIATED MACROPHAGES AND METHODS OF USE” (Sanford Burnham Prebys Medical Discovery Institute, priority 2018, published 2021).
